Data published in the supplement of paper PMC9170038.

Key:
MS2 coat protein [1] = assay: apparent KD of MS2 coat protein, switch ON state; designed switch direction (-1 OFF switch, 1 ON switch): -1; higher = weaker reporter binding; details: FMN input: 0 or 200 uM; Eterna round: R93 (includes R88 designs)
Method in brief: (§1)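 On-chip transcription from Illumina sequencing clusters produced the designed RNA switches. These were titrated with SNAP-549-labelled MS2 coat protein (twofold steps, 0.7 or 1.5 nM to 3 µM) in 100 mM Tris-HCl pH 7.5, 80 mM KCl, 4 mM MgCl2, with or without constant ligand. The apparent KD given is the per-design median of normalised cluster binding-curve fits.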

MS2 coat protein [2] = assay: apparent KD of MS2 coat protein, switch OFF state (with FMN for OFF switches, without FMN for ON switches); designed switch direction (-1 OFF switch, 1 ON switch): -1; higher = weaker reporter binding; details: FMN input: 0 or 200 uM; Eterna round: R93 (includes R88 designs)
Method in brief: as §1

Sequence | apparent KD of MS2 coat protein (MS2 coat protein [1]) [nM] | apparent KD of MS2 coat protein (MS2 coat protein [2]) [nM]
AAGGGACAUGAGGAUCACCCAUGUUAGGAUAUGCAAAUAACAAACAACAAACAACAAAGCAGAAGGGACAAAAA [Mat - Exclusion 1 - Eli mod - D54] | 37.5 | 29.3
AAAAAGAGAGGAUAUACAUGAGGAUCACCCAUGUGACAUUAAAUAAAUAAAAUAAAAUGUAGAAGGCUCAAAAA [65%, Moding Exclusion3-cac2, 22] | 38.6 | 171
AAGUUGUCAGGAUAUGCUUGUCGUCACAAAAGUGAUGACGAGCAGAAGGGACAUGAGGAUCACCCAUGUAAAGA [JL eternac mod 2] | 65.8 | 117
AAACCACAUGAGGAUCACCCAUGUUAGGAUAUGCUAUGGAAAUAAAAAAUAAAACAUAGCAGAAGGGACAAAAA [Mat - Exclusion 1 - Eli mod - D35] | 19.7 | 19.3
AAAAAGGUAGGAUAUACAUGAGGAUCACCCAUGUAAAAAAAAACAGAAAAAAACAAAUGUAGAAGGGCCAAAAA [Ex3 Malc#5] | 25.9 | 35.6
AAGAACGAAGGAUAUACAUGAGGAUCACCCAUGUAAAAGAAAGAAAAGGGAAAGAAAAGUAGAAGGUCGAAGAA [Banenre Merenptah] | 21.5 | 33.1
AAGAACCAAGGAUAUACAUGAGGAUCACCCAUGUAAAAGAAAGAGGGAAAAGAGAAAAGUAGAAGGUGGAAGAA [Ptolemy VI Philometor] | 27.5 | 32.1
AAAUUAGGAGGAUAUACAUGAGGAUCACCCAUGUGACGAUGUUACUGCAUGAAGUCAAGUAGAAGGUCUAAGAA [Cearar] | 31.7 | 44.2
GGGAAACAUGAGGAUCACCCAUGUGAGGAUAUGCUAUGGAAAAUAAAAAUAAAACAUAGCAGAAGGCAUAAAAA [Denovo 11] | 30.6 | 37
AAAAAACAUGAGGAUCACCCAUGUGAGGAUAUGCUAUGGAAAAUAAAAAUAAAACAUAGCAGAAGGCACACCAA [Denovo 16] | 31.4 | 37.4
UCCUGACAUGAGGAUCACCCAUGUCAGGAUAUGCAUCUUAGGAAAAAAAAACUAAGAUGCAGAAGGGACAUGGG [Design 1: Super Stable] | 26.9 | 36.3
AAAAAACAUGAGGAUCACCCAUGUCAGGAUAUGCUAUGGAAAUAAAAAAUAAAACAUAGCAGAAGGGACACCAA [Mat - Exclusion 1 - Eli mod - D48] | 31 | 55
AAAAAACAUGAGGAUCACCCAUGUAAGGAUAUGCAAAAGAAAAGAAAAGAAAGAAGAAGCAGAAGGUACAAGAA [Userkaf] | 35 | 31.2
AGUUGGCGAGGAUAUACAUGAGGAUCACCCAUGUGAGAGAAAUAAGUGAGAAAGAAAAGUAGAAGGCGCUAACA [JL Lego Mod 18] | 53.5 | 164
AGCUAGUCAGGAUAUACGAACAUGUCAGAAGACGUGAAGGGACAUGAGGAUCACCCAUGUAGAAGGGACUAGCA [74%, Web mod - With 1 more G's] | 31.9 | 102
AAAUACCAAGGAUAUACAUGAGGAUCACCCAUGUACAAACCCGUGGAACGGAUCGUUGGUAGAAGGUGGAAAUA [Isleusso] | 13.4 | 12.2
AAAAAACAUGAGGAUCACCCAUGUGAGGAUAUCCAGAAUGGAAUAAAAUAACAAGAAAGGAGAAGGCACAAAAA [Ex 1 May 37] | 67.7 | 42.1
AAGAUCAGAGGAUAUACAUAAGGUGAUGAAAACAUCGCCAAACAUGAGGAUCACCCAUGUAGAAGGCUGAUCAA [JL EX2 1] | 118 | 231
AAAGAUGGAGGAUAUACAUGAGGAUCACCCAUGUAAAAAAAAAAGAGGGAAAAAGAAAGUAGAAGGCCACAAAA [Ex 3 May 44] | 83.1 | 46.4
AUCAUGUAAGGAUAUUCAAGAAAAGAAAAGAAAGAAAAGAAGAAGAAGGUACAUGAGGAUCACCCAUGUAAGAA [EteRNA is fun!] | 42.5 | 64.2
AAAAAACAUGAGGAUCACCCAUGUGAGGAUAUCGGAAAAGGAAAAAAAAAAAAGAAGACGAGAAGGCACACCAA | 28.6 | 25.1
AAAAAACAUGAGGAUCACCCAUGUGAGGAUAUCGGUAGUGAGGCCAUAGUGUCAGUAAUGAGAAGGCACAUAAA [Brourd 613 Mod 10 - Jieux - Exclusion 1] | 25.4 | 22.7
AAAACGUGAGGAUAUGCACCAAAAAAGGUAUUUCGGGUACGACAUGAGGAUCACCCAUGUAGAAGGCACGAAAA [Frodo Flailing 13 - Jieux - Exclusion 2] | 22.8 | 19.8

Sequence | apparent KD of MS2 coat protein (MS2 coat protein [1]) [nM] | apparent KD of MS2 coat protein (MS2 coat protein [2]) [nM]
GAGAUACAUGAGGAUCACCCAUGUGAGGAUAUCGGUUGGAGGAGGUGGAGGUUGAGUACGAGAAGGCACGGAUG [salish99-Ex1-10] | 24.9 | 31.1
AACUGACAUGAGGAUCACCCAUGUCAGGAUAUGCUUCUAGGAAAAAUAAAAACUAGAUGCAGAAGGGAUAUGGG [Design 38] | 22.2 | 33.3
CAUAGGCGAGGAUAUACAUGAGGAUCACCCAUGUAAGGAAACCUGGCAGACUCAGAAUGUAGAAGGCGCACUGA [Ex3_Neo] | 17.1 | 32.5
AUAUAACAUGAGGAUCACCCAUGUCAGGAUAUCGAACCCAACACAACCAAAAUGUCGGCGAGAAGGGACAAAAA [Default title] | 27.5 | 22.6
AAAAAACAUGAGGAUCACCCAUGUAAGGAUAUGCUAUGGAAAAUAAAAAUAAAACAUAGCAGAAGGUACACCAA [Amethyst 81] | 18.9 | 27.3
AGGGAGUGAGGAUAUACGAAAUAAAAAGAAGGAAAAAAAGAGUAGAAGGCACAUGAGGAUCACCCAUGUGAGAA [milkweed 12] | 20.7 | 20.6
AAAAAGUGAGGAUAUACGCUGAGGAGUAGACACAACCAGGCGUAGAAGGCACAUGAGGAUCACCCAUGUCCAAA [EX4 Malc#11] | 26.1 | 39.8
AAGAAACAUGAGGAUCACCCAUGUGAGGAUAUCUAAAAGAAAAGAAAAGAAAGAAGAAGGAGAAGGCACAAAGG [H—] | 34.3 | 29
AAAGCGGCAGGAUAUACAGGAACAAAAGUAUGUGCAUCCGCACAUGAGGAUCACCCAUGUAGAAGGGCUAAUAA [Ontiti] | 167 | 270
AAAAGUGGAGGAUAUACAUGAGGAUCACCCAUGUGUAAAAAUAAAUACACAAAAGAAAGUAGAAGGCCACAAAA [Ex 3 May 10] | 25.8 | 122
GCUUGUGAAGGAUAUACAUGAGGAUCACCCAUGUGAGAGAAAAAAGUGAGAAAGAAAAGUAGAAGGUCGUGAGG [salish99-ex3-79] | 36.1 | 37
AAAGUGUGAGGAUAUGUCAAAGGUCACGAAAGUGACAAAGGGCAGAAGGUACAUGAGGAUCACCCAUGUAAAAA [Opal 1] | 24 | 19.9
CAGUACUGAGGAUAUACAUGAGGAUCACCCAUGUGAAAAAGCUACGAAAGUAGCAAAUGUAGAAGGCAGUACUG [Ex3: 806] | 28.9 | 273
AAAAAGUGAGGAUAUUCGGAUAGGAAAACGAAAACCUAUCCGAAGAAGGCACAUGAGGAUCACCCAUGUGGAAG [Mat - Exaclusion 4 - Eli mod - D47] | 37.2 | 48.3
UGGGAGUCAGGAUAUACGAACAUGUCGCCAGAUGUCAAGGUACAUGAGGAUCACCCAUGUAGAAGGGAGGAGAA [salish99-Ex2-30(!)] | 97.1 | 56.6
AAAAAACAUGAGGAUCACCCAUGUGAGGAUAUGCAAAACCCAAAUAAAAAGAGAAAAAGCAGAAGGCACAAAAA [wbt round 1 mod 2] | 23.5 | 30.3
AAGUACUCAGGAUAUACAUGAGGAUCACCCAUGUGAUAAAAGCGUAAAAAACGCACAUGUAGAAGGGAGUACAA [JL In thr Red Again 2] | 140 | 84
AAGAAGACAGGAUAUACAAAAUAAAAGAAAAGAAAGAAAGAACAUGAGGAUCACCCAUGUAGAAGGGUCAAGAA [Sekhemkare Amenemhat V] | 69.9 | 31.1
CUCAAGUAAGGAUAUCAAAGAAAAGAAGAGAAAGAAAAGAAUGAGAAGGUACAUGAGGAUCACCCAUGUAAGAA [EteRNA is fun!] | 35.2 | 23
AAAAAAAAAGGAUAUACAGGAGGUAAGGUCGGACAAAAAAAACAUGAGGAUCACCCAUGUAGAAGGUUUAAAAA [Excls2-IX] | 34.5 | 19.8
AGGCAGACAGGAUAUACUUGGGCAGCCAGUAUGGUAAUAUAACAUGAGGAUCACCCAUGUAGAAGGGUCAGAAA [JR_Exc002_Sub210] | 94.3 | 88.4
AAAAAACAUGAGGAUCACCCAUGUCAGGAUAUACAAAAUAAAAUAAAAAUAAAAUAAAGUAGAAGGGACAAAAA [May 8] | 28.5 | 25.4
AGGUUGUCAGGAUAUGCGUGAAGAAUAAAACAAAUAACAACGCAGAAGGGACAUGAGGAUCACCCAUGUAACCA [May 53] | 35.6 | 27.2
